Data on 4 molecules can be found in PMC6182161 (Nucleic Acids Research, 2018).

In one test the target is T1, Flag-NAT10 GE (UniProt Q9H0A0 1-1025, G641E).
T1 sequence (looked up): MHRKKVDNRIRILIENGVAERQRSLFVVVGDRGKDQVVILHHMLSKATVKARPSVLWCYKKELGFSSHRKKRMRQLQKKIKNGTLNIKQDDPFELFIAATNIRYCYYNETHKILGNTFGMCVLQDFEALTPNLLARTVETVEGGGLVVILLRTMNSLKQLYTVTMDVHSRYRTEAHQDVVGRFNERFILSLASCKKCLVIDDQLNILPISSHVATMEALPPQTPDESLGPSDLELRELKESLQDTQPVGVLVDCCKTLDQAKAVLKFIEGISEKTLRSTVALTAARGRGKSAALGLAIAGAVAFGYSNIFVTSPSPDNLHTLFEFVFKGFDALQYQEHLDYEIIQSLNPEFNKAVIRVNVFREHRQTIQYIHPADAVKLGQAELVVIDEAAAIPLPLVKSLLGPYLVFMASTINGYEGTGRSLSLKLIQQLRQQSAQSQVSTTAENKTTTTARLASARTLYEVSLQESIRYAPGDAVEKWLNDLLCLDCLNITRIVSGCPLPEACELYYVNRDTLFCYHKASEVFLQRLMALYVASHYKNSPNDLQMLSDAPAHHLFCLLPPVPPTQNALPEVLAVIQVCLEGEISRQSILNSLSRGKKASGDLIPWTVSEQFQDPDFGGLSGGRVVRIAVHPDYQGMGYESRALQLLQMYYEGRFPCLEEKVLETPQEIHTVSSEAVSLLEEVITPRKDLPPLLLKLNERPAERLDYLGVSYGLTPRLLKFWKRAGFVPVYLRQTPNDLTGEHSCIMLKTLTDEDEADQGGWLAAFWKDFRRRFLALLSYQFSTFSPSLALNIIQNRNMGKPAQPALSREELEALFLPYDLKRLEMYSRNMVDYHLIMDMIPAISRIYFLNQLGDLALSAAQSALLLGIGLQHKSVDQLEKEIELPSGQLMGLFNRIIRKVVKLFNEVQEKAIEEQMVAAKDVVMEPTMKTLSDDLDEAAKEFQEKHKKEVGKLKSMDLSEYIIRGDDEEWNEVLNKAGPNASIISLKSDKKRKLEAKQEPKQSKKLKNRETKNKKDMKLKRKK
Description: pull-down.

For the next test, the target named is T2, purified Flag-NAT10 (UniProt Q9H0A0 1-1025).
T2 sequence (looked up): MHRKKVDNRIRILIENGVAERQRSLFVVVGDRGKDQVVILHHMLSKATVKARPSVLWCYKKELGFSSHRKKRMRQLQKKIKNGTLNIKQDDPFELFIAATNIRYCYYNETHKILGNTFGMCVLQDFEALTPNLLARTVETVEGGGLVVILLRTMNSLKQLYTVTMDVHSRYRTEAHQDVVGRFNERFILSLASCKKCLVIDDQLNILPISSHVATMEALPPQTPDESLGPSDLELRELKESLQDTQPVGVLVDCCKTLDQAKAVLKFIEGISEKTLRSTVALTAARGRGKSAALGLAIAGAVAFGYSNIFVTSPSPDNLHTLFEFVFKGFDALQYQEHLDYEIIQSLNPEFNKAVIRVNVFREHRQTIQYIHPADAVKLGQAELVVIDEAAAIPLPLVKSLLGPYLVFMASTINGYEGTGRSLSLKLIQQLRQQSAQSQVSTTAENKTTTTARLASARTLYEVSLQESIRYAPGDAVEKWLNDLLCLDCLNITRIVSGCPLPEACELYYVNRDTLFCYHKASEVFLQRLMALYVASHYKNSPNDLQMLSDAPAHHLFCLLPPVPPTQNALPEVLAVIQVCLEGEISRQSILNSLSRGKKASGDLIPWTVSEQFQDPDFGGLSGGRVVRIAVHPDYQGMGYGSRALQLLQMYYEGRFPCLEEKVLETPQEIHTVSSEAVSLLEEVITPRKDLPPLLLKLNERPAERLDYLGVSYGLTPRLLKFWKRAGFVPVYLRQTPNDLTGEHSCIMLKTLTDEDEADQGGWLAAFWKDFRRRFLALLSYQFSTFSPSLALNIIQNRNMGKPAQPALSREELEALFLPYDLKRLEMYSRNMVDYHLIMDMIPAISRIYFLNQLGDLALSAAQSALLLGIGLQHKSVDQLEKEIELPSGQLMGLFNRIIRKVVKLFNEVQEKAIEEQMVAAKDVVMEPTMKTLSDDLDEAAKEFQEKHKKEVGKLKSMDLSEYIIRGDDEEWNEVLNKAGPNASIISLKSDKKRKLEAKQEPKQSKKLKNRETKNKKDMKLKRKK
Put plainly: pull-down.

B1: GST-Che-1 (natural protein, UniProt Q9NY61 1-560, looked up)
chain: MAGPQPLALQLEQLLNPRPSEADPEADPEEATAARVIDRFDEGEDGEGDFLVVGSIRKLASASLLDTDKRYCGKTTSRKAWNEDHWEQTLPGSSDEEISDEEGSGDEDSEGLGLEEYDEDDLGAAEEQECGDHRESKKSRSHSAKTPGFSVQSISDFEKFTKGMDDLGSSEEEEDEESGMEEGDDAEDSQGESEEDRAGDRNSEDDGVVMTFSSVKVSEEVEKGRAVKNQIALWDQLLEGRIKLQKALLTTNQLPQPDVFPLFKDKGGPEFSSALKNSHKALKALLRSLVGLQEELLFQYPDTRYLVDGTKPNAGSEEISSEDDELVEEKKQQRRRVPAKRKLEMEDYPSFMAKRFADFTVYRNRTLQKWHDKTKLASGKLGKGFGAFERSILTQIDHILMDKERLLRRTQTKRSVYRVLGKPEPAAQPVPESLPGEPEILPQAPANAHLKDLDEEIFDDDDFYHQLLRELIERKTSSLDPNDQVAMGRQWLAIQKLRSKIHKKVDRKASKGRKLRFHVLSKLLSFMAPIDHTTMNDDARTELYRSLFGQLHPPDEGHGD
As to B1, the binding result with Flag-NAT10 GE and with purified Flag-NAT10 was “binds” each time.

B2: GST-Che-1-M (domain or fragment, UniProt Q9NY61 125-246, looked up)
chain: AEEQECGDHRESKKSRSHSAKTPGFSVQSISDFEKFTKGMDDLGSSEEEEDEESGMEEGDDAEDSQGESEEDRAGDRNSEDDGVVMTFSSVKVSEEVEKGRAVKNQIALWDQLLEGRIKLQK
In the case of B2, the binding result in the test with purified Flag-NAT10 is “binds”.

B3: GST-Che-1-N (domain or fragment, UniProt Q9NY61 1-124, looked up)
chain: MAGPQPLALQLEQLLNPRPSEADPEADPEEATAARVIDRFDEGEDGEGDFLVVGSIRKLASASLLDTDKRYCGKTTSRKAWNEDHWEQTLPGSSDEEISDEEGSGDEDSEGLGLEEYDEDDLGA
B3: in the test with purified Flag-NAT10, the binding result is recorded as “binds”.

B4: GST-Sirt1 (enzyme, UniProt Q96EB6 1-747, looked up)
chain: MADEAALALQPGGSPSAAGADREAASSPAGEPLRKRPRRDGPGLERSPGEPGGAAPEREVPAAARGCPGAAAAALWREAEAEAAAAGGEQEAQATAAAGEGDNGPGLQGPSREPPLADNLYDEDDDDEGEEEEEAAAAAIGYRDNLLFGDEIITNGFHSCESDEEDRASHASSSDWTPRPRIGPYTFVQQHLMIGTDPRTILKDLLPETIPPPELDDMTLWQIVINILSEPPKRKKRKDINTIEDAVKLLQECKKIIVLTGAGVSVSCGIPDFRSRDGIYARLAVDFPDLPDPQAMFDIEYFRKDPRPFFKFAKEIYPGQFQPSLCHKFIALSDKEGKLLRNYTQNIDTLEQVAGIQRIIQCHGSFATASCLICKYKVDCEAVRGDIFNQVVPRCPRCPADEPLAIMKPEIVFFGENLPEQFHRAMKYDKDEVDLLIVIGSSLKVRPVALIPSSIPHEVPQILINREPLPHLHFDVELLGDCDVIINELCHRLGGEYAKLCCNPVKLSEITEKPPRTQKELAYLSELPPTPLHVSEDSSSPERTSPPDSSVIVTLLDQAAKSNDDLDVSESKGCMEEKPQEVQTSRNVESIAEQMENPDLKNVGSSTGEKNERTSVAGTVRKCWPNRVAKEQISRRLDGNQYLFLPPNRYIFHGAEVYSDSEDDVLSSSSCGSNSDSGTCQSPSLEEPMEDESEIEEFYNGLEDEPDVPERAGGAGFGTDGDDQEAINEAISVKQEVTDMNYPSNKS
As for B4, the binding result in the test with purified Flag-NAT10 is listed as “binds”.
